For assay [1], the target named is D3H44 Fab heavy chain S186K, C-terminal ABD2-His6 tag. Kind of assay: LCCA: heavy chain co-expressed with two light chains, SPR detection of light chain tags; L1:L2 DNA 1:3, normalized to 1:1; competing light chain m11.
Assay [2] has as its target D3H44 Fab heavy chain L143E_K145T, C-terminal ABD2-His6 tag. Described as above.
For assay [3], the target named is D3H44 Fab heavy chain S186K, C-terminal ABD2-His6 tag. Kind of assay: LCCA: heavy chain co-expressed with two light chains, SPR detection of light chain tags; L1:L2 DNA 1:9, normalized to 1:1; competing light chain m11.
Assay [4] deals with D3H44 Fab heavy chain L143E_K145T, C-terminal ABD2-His6 tag. Described as above.
For assay [5] the target is unchanged. Kind of assay: LCCA: heavy chain co-expressed with two light chains, SPR detection of light chain tags; L1:L2 DNA 1:3, normalized to 1:1; competing light chain m18.
Assay [6] addresses D3H44 Fab heavy chain L143R, C-terminal ABD2-His6 tag. Described as above.
Assay [7] has as its target D3H44 Fab heavy chain L143E_K145T_S188L, C-terminal ABD2-His6 tag. Kind of assay: LCCA: heavy chain co-expressed with two light chains, SPR detection of light chain tags; L1:L2 DNA 1:3, normalized to 1:1; competing light chain m11.
Assay [8] addresses D3H44 Fab heavy chain L143R, C-terminal ABD2-His6 tag. The assay is described as above.
The target of assay [9] is D3H44 Fab heavy chain L143E_K145T_S188L, C-terminal ABD2-His6 tag. The assay can be described thus: LCCA: heavy chain co-expressed with two light chains, SPR detection of light chain tags; L1:L2 DNA 1:9, normalized to 1:1; competing light chain m11.
The target in assay [10] is D3H44 Fab heavy chain L143R, C-terminal ABD2-His6 tag. The assay is described as above.
For assay [11], the target named is D3H44 Fab heavy chain Q179R, ABD2-His6 tagged. The assay can be described thus: LCCA, SPR of light chain tags; L1:L2 DNA 1:9 normalized to 1:1; competing light chain m21.
The target in assay [12] is D3H44 Fab heavy chain L143E_K145T_Q179E, ABD2-His6 tagged. Described as above.
Assay [13] addresses D3H44 Fab heavy chain S186K, ABD2-His6 tagged. Described as above.
The target in assay [14] is D3H44 Fab heavy chain L143E_K145T_Q179E, ABD2-His6 tagged. The assay can be described thus: LCCA, SPR of light chain tags; L1:L2 DNA 1:3 normalized to 1:1; competing light chain m24.
Assay [15] concerns the target D3H44 Fab heavy chain S186K, ABD2-His6 tagged. The assay is described as above.
In assay [16] the target is D3H44 Fab heavy chain L143E_K145T_Q179E, ABD2-His6 tagged. Kind of assay: LCCA, SPR of light chain tags; L1:L2 DNA 1:9 normalized to 1:1; competing light chain m20.
Assay [17] addresses D3H44 Fab heavy chain L143R, ABD2-His6 tagged. The assay is described as above.
Assay [18] has as its target D3H44 Fab heavy chain Q179K, ABD2-His6 tagged. The assay can be described thus: LCCA, SPR of light chain tags; L1:L2 DNA 1:3 normalized to 1:1; competing light chain m22.
For assay [19], the target named is D3H44 Fab heavy chain Q179R, ABD2-His6 tagged. The description is as above.
The target of assay [20] is D3H44 Fab heavy chain L143E_K145T_Q179E, ABD2-His6 tagged. The description is as above.
Assay [21] has the same target. The assay can be described thus: LCCA, SPR of light chain tags; L1:L2 DNA 1:3 normalized to 1:1; competing light chain m20.
Assay [22] addresses D3H44 Fab heavy chain L143R, ABD2-His6 tagged. The assay is described as above.
Assay [23] concerns the target D3H44 Fab heavy chain Q179K, ABD2-His6 tagged. Kind of assay: LCCA, SPR of light chain tags; L1:L2 DNA 1:3 normalized to 1:1; competing light chain m17.
The target of assay [24] is D3H44 Fab heavy chain Q179R, ABD2-His6 tagged. The assay is described as above.
Assay [25] addresses D3H44 Fab heavy chain L143E_K145T_Q179E, ABD2-His6 tagged. The description is as above.
Assay [26] has as its target D3H44 Fab heavy chain S186R, ABD2-His6 tagged. The assay is described as above.
In assay [27] the target is D3H44 Fab heavy chain S186K, ABD2-His6 tagged. The assay is described as above.
The target in assay [28] is D3H44 Fab heavy chain L143E_K145T_Q179E, ABD2-His6 tagged. Kind of assay: LCCA, SPR of light chain tags; L1:L2 DNA 1:9 normalized to 1:1; competing light chain m24.
Assay [29] has as its target D3H44 Fab heavy chain S186K, ABD2-His6 tagged. The assay is described as above.
Assay [30] addresses D3H44 Fab heavy chain Q179R, ABD2-His6 tagged. Kind of assay: LCCA, SPR of light chain tags; L1:L2 DNA 1:3 normalized to 1:1; competing light chain m21.
For assay [31], the target named is D3H44 Fab heavy chain L143E_K145T_Q179E, ABD2-His6 tagged. The assay is described as above.
Assay [32] has as its target D3H44 Fab heavy chain S186K, ABD2-His6 tagged. The description is as above.
The target of assay [33] is D3H44 Fab heavy chain L143E_K145T_Q179E, ABD2-His6 tagged. The assay can be described thus: LCCA, SPR of light chain tags; L1:L2 DNA 1:3 normalized to 1:1; competing light chain m19.
Assay [34] has as its target D3H44 Fab heavy chain S186R, ABD2-His6 tagged. The assay is described as above.
Assay [35] deals with D3H44 Fab heavy chain Q179K, ABD2-His6 tagged. The assay can be described thus: LCCA, SPR of light chain tags; L1:L2 DNA 1:9 normalized to 1:1; competing light chain m22.
Assay [36] has as its target D3H44 Fab heavy chain L143E_K145T_Q179E, ABD2-His6 tagged. The description is as above.
Assay [37] has as its target D3H44 Fab heavy chain Q179K, ABD2-His6 tagged. Kind of assay: LCCA, SPR of light chain tags; L1:L2 DNA 1:9 normalized to 1:1; competing light chain m17.
For assay [38], the target named is D3H44 Fab heavy chain Q179R, ABD2-His6 tagged. Described as above.
The target of assay [39] is D3H44 Fab heavy chain L143E_K145T_Q179E, ABD2-His6 tagged. The assay is described as above.
Assay [40] has as its target D3H44 Fab heavy chain S186R, ABD2-His6 tagged. Described as above.
Assay [41] addresses D3H44 Fab heavy chain S186K, ABD2-His6 tagged. Described as above.
The target of assay [42] is tissue factor (TF) antigen (UniProt P13726). Kind of assay: SPR; log change of median KD against wild-type D3H44 Fab.
For assay [43] the target is unchanged. The assay can be described thus: SPR, Fab captured by anti-penta-His, TF injected, 1:1 fit; estimated (*) from a Fab that differs only in the L chain tag.
Assay [44] has the same target. Kind of assay: SPR; log change of median KD against wild-type D3H44 Fab; estimated (*) from a Fab that differs only in the L chain tag.
The target is the same in assay [45]. Kind of assay: SPR, Fab captured by anti-penta-His, TF injected, 1:1 fit. (In general: Surface plasmon resonance follows binding to a sensor surface in real time, without labels.)

Turning to “D3H44 light chain Q124E_T178E_T180E, N-terminal HA or FLAG tag”, the H2L2:H2L1 normalized median ratio came to 91% in assay [1] and 90% in [3]. Further, the H1L1:H1L2 normalized median ratio in assay [2] was found to be 18%; in assay [4], 19%.
On to “D3H44 light chain Q124E_V133E_Q160M, N-terminal HA or FLAG tag”, for which the H1L1:H1L2 normalized median ratio in assay [5] is 15%. Also, in assay [6], the H2L2:H2L1 normalized median ratio amounted to 88%.
For “D3H44 light chain Q124E_V133E_S176L, N-terminal HA or FLAG tag”, the H1L1:H1L2 normalized median ratio in assay [7] is 26%; in assay [9], 14%. Moreover, the results for the H2L2:H2L1 normalized median ratio in [8] and in assay [10] were 94% and 79%, respectively.
As for “D3H44 light chain Q124R_T178R, HA or FLAG tagged”, the H2L2:H2L1 normalized median ratio was found to be 10% in assay [11]; 11% in [13]; 6% in [15]; 11% in [17]; 4% in assay [18]; 3% in [19]. The H2L2:H2L1 normalized median ratio came out at 5% in assay [22]; 5% in assay [23]; 5% in [24]; 6% in assay [26]; 2% in assay [27]; 6% in [29]. Further, the H2L2:H2L1 normalized median ratio in [30] stood at 6%; in assay [32], 5%; in assay [34] it was 4%; in [35] it was 11%; in [37] it was 16%; in [38], 14%. For the same substance, the figures for the H2L2:H2L1 normalized median ratio in assay [40] and in [41] were 13% and 10%, respectively. Also, the H1L1:H1L2 normalized median ratio in assay [12] is 92%; in [14] it was 91%; in assay [16] it was 92%; in assay [20], 86%; in assay [21], 93%; in assay [25], 91%. Moreover, the H1L1:H1L2 normalized median ratio in assay [28] amounted to 78%; in assay [31], 92%; in [33] it was 85%; in assay [36], 85%; in assay [39], 90%. In addition, the H1L1:H1L2 normalized median scalar value ln(r1/f1) in assay [12] is 2.45; in assay [14] it was 2.27; in assay [16], 2.45; in [20], 1.83; in [21], 2.62; in assay [25], 2.29. Moreover, the H1L1:H1L2 normalized median scalar value ln(r1/f1) in assay [28] stood at 1.29; in assay [31], 2.46; in assay [33], 1.75; in assay [36], 1.77; in [39], 2.18.
Regarding “H1L1 Fab heterodimer of LCCA sets 9589, 9587, 9588 and 9585 (D3H44 Fab, H1 L143E_K145T, L1 Q124R)”, the Change in median values of KD of h1l1 Fab heterodimer compared to wild type (-(log(KD design)-log(KD wt))) in assay [42] and in assay [44] was -0.25 log units in each case. In addition, the Kd in assay [43] and in [45] was 0.28 nM each time.

One may read the Kd as the equilibrium constant for the complex coming apart.

Source of the values: patent US11306156.
